# Test results reported in patent US20240182536A1 (MURAL ONCOLOGY, published 2024).
# Read-outs that look alike come from different tables or passages of the source.
# T1: IL-18 receptor alpha (UniProt Q13478 19-329, limits assumed)
# T1 construct: also called IL-18 Rα; IL-18Rα
# T1 sequence (looked up): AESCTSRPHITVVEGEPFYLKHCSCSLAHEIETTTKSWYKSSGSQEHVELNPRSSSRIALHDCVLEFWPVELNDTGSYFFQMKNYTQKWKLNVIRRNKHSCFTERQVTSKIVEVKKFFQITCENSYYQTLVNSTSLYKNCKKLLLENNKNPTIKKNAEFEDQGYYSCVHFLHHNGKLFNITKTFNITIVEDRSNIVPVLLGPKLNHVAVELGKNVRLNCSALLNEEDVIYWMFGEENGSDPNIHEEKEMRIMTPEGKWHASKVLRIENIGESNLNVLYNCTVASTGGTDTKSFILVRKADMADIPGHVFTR
# T2: human IL-18 binding protein (human, UniProt O95998 31-194)
# T2 sequence (looked up): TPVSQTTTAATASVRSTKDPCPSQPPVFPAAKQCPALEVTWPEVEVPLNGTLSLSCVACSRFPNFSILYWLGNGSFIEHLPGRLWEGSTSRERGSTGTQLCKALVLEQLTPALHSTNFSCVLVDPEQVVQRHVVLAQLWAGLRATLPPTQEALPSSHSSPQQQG
# T3: IL-18 receptors on HEK-Blue IL-18 reporter cells (UniProt Q13478 19-541; O95256 20-599, limits assumed)
# T3 sequence (looked up) 1: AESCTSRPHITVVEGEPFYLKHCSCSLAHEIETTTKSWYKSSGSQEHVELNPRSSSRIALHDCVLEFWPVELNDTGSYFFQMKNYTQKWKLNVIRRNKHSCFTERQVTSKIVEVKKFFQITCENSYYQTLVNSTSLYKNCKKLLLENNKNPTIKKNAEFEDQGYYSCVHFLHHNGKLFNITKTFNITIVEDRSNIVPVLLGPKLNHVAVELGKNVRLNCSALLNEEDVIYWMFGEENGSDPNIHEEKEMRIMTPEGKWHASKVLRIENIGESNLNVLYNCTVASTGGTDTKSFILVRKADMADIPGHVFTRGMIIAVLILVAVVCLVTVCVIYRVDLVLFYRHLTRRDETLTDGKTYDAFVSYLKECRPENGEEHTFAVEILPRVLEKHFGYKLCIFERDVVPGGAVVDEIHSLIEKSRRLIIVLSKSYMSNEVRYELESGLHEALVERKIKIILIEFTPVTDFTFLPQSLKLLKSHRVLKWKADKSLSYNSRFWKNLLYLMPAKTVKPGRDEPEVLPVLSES
# T3 sequence (looked up) 2: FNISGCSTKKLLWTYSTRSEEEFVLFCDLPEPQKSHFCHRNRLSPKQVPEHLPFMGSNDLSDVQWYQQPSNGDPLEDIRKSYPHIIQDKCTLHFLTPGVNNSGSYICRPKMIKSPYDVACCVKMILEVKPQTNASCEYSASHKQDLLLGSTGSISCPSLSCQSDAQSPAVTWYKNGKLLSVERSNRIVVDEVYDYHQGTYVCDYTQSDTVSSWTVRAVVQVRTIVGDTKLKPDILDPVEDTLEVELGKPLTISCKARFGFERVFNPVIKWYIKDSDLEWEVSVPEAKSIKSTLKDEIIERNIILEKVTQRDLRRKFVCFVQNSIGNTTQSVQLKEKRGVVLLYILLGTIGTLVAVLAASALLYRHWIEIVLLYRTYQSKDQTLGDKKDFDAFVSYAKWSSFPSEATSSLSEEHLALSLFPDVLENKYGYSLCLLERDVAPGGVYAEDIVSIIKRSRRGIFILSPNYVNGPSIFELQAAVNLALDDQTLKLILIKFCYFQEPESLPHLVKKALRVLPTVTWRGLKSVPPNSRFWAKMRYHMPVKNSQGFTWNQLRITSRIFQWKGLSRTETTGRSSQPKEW
# T4: human IL-18 binding protein (IL-18BP) (human, UniProt O95998 31-194)
# T4 construct: also called hu IL-18BP; hIL18BP
# T4 sequence (looked up): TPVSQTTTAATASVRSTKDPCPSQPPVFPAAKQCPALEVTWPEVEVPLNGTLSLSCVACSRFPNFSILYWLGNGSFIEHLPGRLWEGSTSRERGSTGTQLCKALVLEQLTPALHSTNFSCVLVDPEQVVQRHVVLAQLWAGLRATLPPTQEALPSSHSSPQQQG
# T5: IL-18 receptors on HEK-Blue IL-18 reporter cells (InvivoGen) (UniProt Q13478 19-541; O95256 20-599)
# T5 sequence (looked up) 1: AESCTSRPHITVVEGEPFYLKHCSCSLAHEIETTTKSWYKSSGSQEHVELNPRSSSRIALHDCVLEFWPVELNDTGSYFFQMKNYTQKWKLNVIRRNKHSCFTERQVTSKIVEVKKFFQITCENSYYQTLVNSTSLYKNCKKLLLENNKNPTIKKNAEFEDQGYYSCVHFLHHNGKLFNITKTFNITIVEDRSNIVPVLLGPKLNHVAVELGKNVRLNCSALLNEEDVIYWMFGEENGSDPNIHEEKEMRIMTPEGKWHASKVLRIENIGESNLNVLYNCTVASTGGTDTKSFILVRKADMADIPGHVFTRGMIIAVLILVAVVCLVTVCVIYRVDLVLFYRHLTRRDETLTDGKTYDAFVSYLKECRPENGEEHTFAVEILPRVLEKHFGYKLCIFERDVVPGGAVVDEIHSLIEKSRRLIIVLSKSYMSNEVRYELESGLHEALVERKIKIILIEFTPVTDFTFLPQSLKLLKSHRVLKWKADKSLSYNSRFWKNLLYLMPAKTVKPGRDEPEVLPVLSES
# T5 sequence (looked up) 2: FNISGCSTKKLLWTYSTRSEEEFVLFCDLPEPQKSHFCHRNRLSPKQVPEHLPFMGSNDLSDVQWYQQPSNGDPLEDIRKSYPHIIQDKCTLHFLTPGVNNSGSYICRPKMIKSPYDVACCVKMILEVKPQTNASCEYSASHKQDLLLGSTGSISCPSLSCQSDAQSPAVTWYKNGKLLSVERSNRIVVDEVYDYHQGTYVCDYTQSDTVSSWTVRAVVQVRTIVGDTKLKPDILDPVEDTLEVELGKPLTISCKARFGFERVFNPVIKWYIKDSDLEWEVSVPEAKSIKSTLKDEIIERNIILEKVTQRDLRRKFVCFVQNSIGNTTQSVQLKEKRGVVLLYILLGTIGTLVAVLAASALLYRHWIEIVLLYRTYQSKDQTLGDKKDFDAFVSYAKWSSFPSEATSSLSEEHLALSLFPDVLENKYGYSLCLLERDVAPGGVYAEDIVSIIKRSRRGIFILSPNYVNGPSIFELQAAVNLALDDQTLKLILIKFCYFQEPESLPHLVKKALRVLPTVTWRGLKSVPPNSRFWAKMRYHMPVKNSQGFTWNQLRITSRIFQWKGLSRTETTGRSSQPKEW
# Assays:
# IL-18 receptor alpha = target: T1, IL-18 receptor alpha; assay: Octet BLI
# Experimental: (§1) Octet 96red instrument was used to determine affinities of IL18 proteins to BP or receptors. 5-10 ug/ml analyte proteins were used for loading on Sartorius tips (AHC or SA). […] 120-180 s loading, 200 s association and 800 s dissociation were used for kinetics. 3-7 data points were used to calculate affinities.
# Additional IL-18 variants were generated and tested based on the results above with G3 variants, E6 variants, K53 variants, and M60 variants. The new variants were first tested for binding to IL-18Rα and IL-18BP by octet, as described above.
# [1] = target: T2, human IL-18 binding protein; assay: cell-based or functional assay
# [2] = target: T3, IL-18 receptors on HEK-Blue IL-18 …; assay: cell-based or functional assay
# [3] = target: T2, human IL-18 binding protein; assay: cell-based or functional assay; remark: listed apart in the source
# [4] = target: T3, IL-18 receptors on HEK-Blue IL-18 …; assay: cell-based or functional assay; remark: listed apart in the source
# [5] = target: T4, human IL-18 binding protein (IL-18BP); assay: Octet BLI
# Experimental: as §1
# Select G3/K53-substitution containing IL-18 variants and select G3/K53/N91-substitution containing TL-18 variants were tested for activity in the HEK-blue activity assay and for binding affinity to IL-18BP. As shown in the data of Table 15 and Table 16 below, each variant had similar or better activity than WT IL-18, and retained substantial activity in the presence of IL-18BP.
# [6] = target: T4, human IL-18 binding protein (IL-18BP); assay: cell-based or functional assay
# [7] = target: T5, IL-18 receptors on HEK-Blue IL-18 …; assay: cell-based or functional assay
Binder,Kd (IL-18 receptor alpha) [nM],HEK-blue EC50 (pM) + 300 nM BP [1] [pM],HEK-blue EC50 (pM) - BP [2] [pM],HEK-blue EC50 (pM) + 1000 nM BP [3] [pM],HEK-blue EC50 (pM) - BP [4] [pM],Kd [5] [nM],koff [5] [s⁻¹],kon [5] [M⁻¹ s⁻¹],"HEK-Blue Ec50 (pM), +IL-18BP (50 nM) [6] [pM]","HEK-Blue Ec50 (pM), -IL-18BP [7] [pM]"
"Comparator 1 (ligand, Human IL-18 variant M51K, K53S, Q56L, P57A, M60L, S105D, D110S, N111R; also called IL-18 Comparator 1) YFGKLESKLSVIRNLNDQVLFIDQGNRPLFEDMTDSDCRDNAPRTIFIISKYSDSLARGLAVTISVKCEKISTLSCENKIISFKEMNPPDNIKDTKSDIIFFQRDVPGHSRKMQFESSSYEGYFLACEKERDLFKLILKKEDELGDRSIMFTVQNED",16,–,–,–,–,–,–,–,–,–
human IL-18 variant G3V/K53A/M60K (ligand) YFVKLESKLSVIRNLNDQVLFIDQGNRPLFEDMTDSDMRDNAPRTIFIISMYADSQPRGKAVTISVKSEKISTLSSENKIISFKEMNPPDNIKDTKSDIIFFQRSVPGHDNKMQFESSSYEGYFLASEKERDLFKLILKKEDELGDRSIMFTVQNED,488,0.063,0.041,0.075,0.086,–,–,–,–,–
human IL-18 variant G3V/E6K/K53S/M60K (ligand) YFVKLKSKLSVIRNLNDQVLFIDQGNRPLFEDMTDSDMRDNAPRTIFIISMYSDSQPRGKAVTISVKSEKISTLSSENKIISFKEMNPPDNIKDTKSDIIFFQRSVPGHDNKMQFESSSYEGYFLASEKERDLFKLILKKEDELGDRSIMFTVQNED,324,0.098,0.079,0.095,0.089,–,–,–,–,–
human IL-18 variant G3T/E6K/K53S/M60K (ligand) YFTKLKSKLSVIRNLNDQVLFIDQGNRPLFEDMTDSDMRDNAPRTIFIISMYSDSQPRGKAVTISVKSEKISTLSSENKIISFKEMNPPDNIKDTKSDIIFFQRSVPGHDNKMQFESSSYEGYFLASEKERDLFKLILKKEDELGDRSIMFTVQNED,536,0.308,0.33,0.231,0.252,–,–,–,–,–
human IL-18 variant G3V/K53S/M60K (ligand) YFVKLESKLSVIRNLNDQVLFIDQGNRPLFEDMTDSDMRDNAPRTIFIISMYSDSQPRGKAVTISVKSEKISTLSSENKIISFKEMNPPDNIKDTKSDIIFFQRSVPGHDNKMQFESSSYEGYFLASEKERDLFKLILKKEDELGDRSIMFTVQNED,5310,2.18,2.11,2.61,0.021,–,–,–,–,–
human IL-18 variant G3T/K53A/M60K (ligand) YFTKLESKLSVIRNLNDQVLFIDQGNRPLFEDMTDSDMRDNAPRTIFIISMYADSQPRGKAVTISVKSEKISTLSSENKIISFKEMNPPDNIKDTKSDIIFFQRSVPGHDNKMQFESSSYEGYFLASEKERDLFKLILKKEDELGDRSIMFTVQNED,2260,1.01,0.843,1.31,1.88,–,–,–,–,–
human IL-18 variant G3T/E6K/K53A/M60K (ligand) YFTKLKSKLSVIRNLNDQVLFIDQGNRPLFEDMTDSDMRDNAPRTIFIISMYADSQPRGKAVTISVKSEKISTLSSENKIISFKEMNPPDNIKDTKSDIIFFQRSVPGHDNKMQFESSSYEGYFLASEKERDLFKLILKKEDELGDRSIMFTVQNED,222,0.062,0.061,0.065,0.054,–,–,–,–,–
human IL-18 variant G3T/K53S/M60K (ligand) YFTKLESKLSVIRNLNDQVLFIDQGNRPLFEDMTDSDMRDNAPRTIFIISMYSDSQPRGKAVTISVKSEKISTLSSENKIISFKEMNPPDNIKDTKSDIIFFQRSVPGHDNKMQFESSSYEGYFLASEKERDLFKLILKKEDELGDRSIMFTVQNED,5050,4.99,4.26,4.1,5.53,–,–,–,–,–
human IL-18 variant G3V/E6K/K53A/M60K (ligand) YFVKLKSKLSVIRNLNDQVLFIDQGNRPLFEDMTDSDMRDNAPRTIFIISMYADSQPRGKAVTISVKSEKISTLSSENKIISFKEMNPPDNIKDTKSDIIFFQRSVPGHDNKMQFESSSYEGYFLASEKERDLFKLILKKEDELGDRSIMFTVQNED,82,0.033,0.026,0.028,0.031,–,–,–,–,–
"IL-18 variant G3A, K53S (ligand) YFAKLESKLSVIRNLNDQVLFIDQGNRPLFEDMTDSDMRDNAPRTIFIISMYSDSQPRGMAVTISVKSEKISTLSSENKIISFKEMNPPDNIKDTKSDIIFFQRSVPGHDNKMQFESSSYEGYFLASEKERDLFKLILKKEDELGDRSIMFTVQNED",–,–,–,–,–,16.2,0.00398,245000,4.45,1.69
"IL-18 variant G3F, K53S (ligand) YFFKLESKLSVIRNLNDQVLFIDQGNRPLFEDMTDSDMRDNAPRTIFIISMYSDSQPRGMAVTISVKSEKISTLSSENKIISFKEMNPPDNIKDTKSDIIFFQRSVPGHDNKMQFESSSYEGYFLASEKERDLFKLILKKEDELGDRSIMFTVQNED",–,–,–,–,–,11.8,0.0048,408000,5.88,3.39
"IL-18 variant G3S, K53S (ligand) YFSKLESKLSVIRNLNDQVLFIDQGNRPLFEDMTDSDMRDNAPRTIFIISMYSDSQPRGMAVTISVKSEKISTLSSENKIISFKEMNPPDNIKDTKSDIIFFQRSVPGHDNKMQFESSSYEGYFLASEKERDLFKLILKKEDELGDRSIMFTVQNED",–,–,–,–,–,12,0.00338,283000,4.43,2.06
